These results are taken from paper PMC12357092, “Two stages of substrate discrimination dictate selectivity in the Escherichia coli MetNI-Q ABC transporter system” (The Journal of Biological Chemistry, 2025).

In data set [1] the target is MetQ (Escherichia coli) (UniProt P28635). Particulars: cited from earlier work.
Data set [2] has the same target. As to conditions: cited from earlier work. This is another data set of the same source.
Data set [3] has as its target T1, MetQ (Escherichia coli, UniProt P28635, N229A).
T1 construct: secreted, non-lipidated periplasmic MetQ, C-terminal 6xHis, from E. coli BL21(DE3) Gold
T1 sequence (P28635 23-271 N229A): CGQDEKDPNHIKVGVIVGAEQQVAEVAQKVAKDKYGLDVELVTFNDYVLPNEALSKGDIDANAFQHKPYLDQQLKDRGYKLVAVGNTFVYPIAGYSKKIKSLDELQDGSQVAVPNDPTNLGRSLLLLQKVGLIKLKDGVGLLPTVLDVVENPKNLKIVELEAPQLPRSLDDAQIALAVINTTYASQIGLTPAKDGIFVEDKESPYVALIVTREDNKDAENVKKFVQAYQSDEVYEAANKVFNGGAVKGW
The data set can be described thus: isothermal titration calorimetry. The class given is binding.

The target in data set [4] is T2, MetQ (Escherichia coli, UniProt P28635).
T2 construct: secreted, non-lipidated periplasmic MetQ, C-terminal 6xHis, from E. coli BL21(DE3) Gold
T2 sequence (P28635 23-271): T1 sequence (P28635 23-271 N229A) with A207N
The data set can be described thus: isothermal titration calorimetry. The class given is binding.

For data set [5], the target named is T3, MetNI (Escherichia coli, UniProt P30750, N295A).
T3 construct: gene metN; DDM-solubilized full MetNI transporter (MetN2MetI2), His-tag purified, prepared as previously described; with D-methionine transport system permease protein MetI
T3 sequence (P30750 whole entry N295A, one chain of several): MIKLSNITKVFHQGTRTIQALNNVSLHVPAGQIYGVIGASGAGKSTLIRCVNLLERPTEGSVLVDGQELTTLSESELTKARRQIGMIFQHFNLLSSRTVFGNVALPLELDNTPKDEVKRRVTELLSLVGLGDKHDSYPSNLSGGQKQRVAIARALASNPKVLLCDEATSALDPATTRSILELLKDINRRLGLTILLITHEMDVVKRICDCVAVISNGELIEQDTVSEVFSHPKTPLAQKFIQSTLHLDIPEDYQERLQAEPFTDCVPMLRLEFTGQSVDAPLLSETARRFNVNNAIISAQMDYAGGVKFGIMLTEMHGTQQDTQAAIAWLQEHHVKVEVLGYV
The data set can be described thus: ATPase inhibition, EnzChek phosphate assay. The class given is biochemical.

Data set [6] addresses T4, MetNI (Escherichia coli, UniProt P30750).
T4 construct: gene metN; DDM-solubilized full MetNI transporter (MetN2MetI2), His-tag purified, prepared as previously described; with D-methionine transport system permease protein MetI
The data set can be described thus: ATPase inhibition, EnzChek phosphate assay. The class given is biochemical. From the text:
ATPase inhibition, EnzChek phosphate assay on MetNI | we measured the inhibitory constants (Ki) for both L- and D-Met

A further data set addresses T5, MetNI-Q (Escherichia coli, UniProt P28635+P31547).
T5 construct: gene metQ
T5 sequence (P28635 23-271): T1 sequence (P28635 23-271 N229A) with A207N
T5 sequence (P31547 1-217): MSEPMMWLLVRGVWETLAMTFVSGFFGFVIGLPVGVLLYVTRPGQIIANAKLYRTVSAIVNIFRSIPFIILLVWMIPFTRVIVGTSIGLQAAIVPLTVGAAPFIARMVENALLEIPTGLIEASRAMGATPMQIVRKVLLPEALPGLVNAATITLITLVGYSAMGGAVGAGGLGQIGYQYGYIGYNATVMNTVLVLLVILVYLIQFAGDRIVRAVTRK
T5 sequence (P30750 1-343 partner): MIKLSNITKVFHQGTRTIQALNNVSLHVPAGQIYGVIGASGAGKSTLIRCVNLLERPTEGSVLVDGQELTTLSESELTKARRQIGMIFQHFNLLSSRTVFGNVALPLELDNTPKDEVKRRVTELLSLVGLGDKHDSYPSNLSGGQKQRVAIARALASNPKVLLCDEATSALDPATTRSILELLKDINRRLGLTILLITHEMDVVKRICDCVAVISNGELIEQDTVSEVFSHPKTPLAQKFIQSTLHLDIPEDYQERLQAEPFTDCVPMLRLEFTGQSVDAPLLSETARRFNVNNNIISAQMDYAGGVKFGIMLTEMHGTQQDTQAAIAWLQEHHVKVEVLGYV
The data set can be described thus: proteoliposome uptake of 3H-methionine. The class given is biochemical. Particulars: 50 μM L-Met, 50 μM WT MetQ, ATP-regenerating system in lumen, 5 mM MgCl2, pH 7.5, 37 °C; labelled compound.

Data set [7] addresses T6, E. coli MetNI transporter, E166Q/N295A double mutant, detergent-solubilized (E. coli, UniProt P30750 1-343; P31547 1-217, E166Q | N295A).
T6 sequence 1: T5 sequence (P30750 1-343 partner) with E166Q, N295A
T6 sequence 2: T5 sequence (P31547 1-217)
The data set can be described thus: FP; unfolded-refolded N229A MetQ, ATP/EDTA.

The target in data set [8] is T7, E. coli MetNI transporter, N295A mutant (E. coli, UniProt P30750 1-343; P31547 1-217, N295A).
T7 sequence (looked up) 1: T5 sequence (P30750 1-343 partner) with N295A
T7 sequence (looked up) 2: T5 sequence (P31547 1-217)
The data set can be described thus: cell-based or functional assay.

In data set [9] the target is T8, E. coli MetNI transporter, E166Q/N295A double mutant, detergent-solubilized (E. coli, UniProt P30750 1-343; P31547 1-217, E166Q | N295A).
T8 construct: MetI, the transmembrane (permease) subunit of the E. coli methionine ABC importer MetNI; also called E166Q/N295A MetNI; source: purified, detergent-solubilized (DDM); copies: 2 + 2
T8 sequence (looked up) 1: T5 sequence (P30750 1-343 partner) with E166Q, N295A
T8 sequence (looked up) 2: T5 sequence (P31547 1-217)
As to the kind of experiment: fluorescence polarisation; 20 nM fluorescein-labelled MetQ held constant, detergent-solubilized E166Q/N295A MetNI 0-10 uM; ATP-bound state mimicked with 5 mM ATP and 10 mM EDTA; no methionine added (unfolded-refolded WT MetQ or native N229A); 57.5 mM Tris pH 7.5, 10 mM TAPS pH 8.5, 150 mM NaCl, 1.5 mM bME, 0.05% DDM; single-site binding model. As to conditions: both partners purified.

Data set [10] concerns the target T8, E. coli MetNI transporter, E166Q/N295A …. The data set can be described thus: fluorescence polarisation; control: native WT MetQ (co-purifies with L-Met, not unfolded-refolded) with detergent-solubilized E166Q/N295A MetNI. As to conditions: both partners purified.
Data set [11] has the same target. As to the kind of experiment: fluorescence polarisation; as a1 (5 mM ATP and 10 mM EDTA), unfolded-refolded WT MetQ with exogenous 100 uM L-Met. Particulars: both partners purified.
The target is the same in data set [12]. As to the kind of experiment: fluorescence polarisation; as a1 (5 mM ATP and 10 mM EDTA), unfolded-refolded WT MetQ with exogenous 100 uM D-Met. As to conditions: both partners purified.
Substrate in the data set “purified protein”: Nc1ncnc2c1ncn2[C@@H]1O[C@H](COP(=O)(O)OP(=O)(O)OP(=O)(O)O)[C@@H](O)[C@H]1O
The data set can be described thus: purified protein. Particulars: 500 nM MetNI in DDM, equimolar MgCl2 and ATP, 37 °C, no MetQ, no Met.

Positions count from the first letter of the chain named. Names and notes keep the numbering of the source. Read-outs that look alike come from different tables or passages of the source.

For MetNI (from UniProt P30750), the values for the Kd with MetQ (Escherichia coli) [1] and with MetQ (Escherichia coli) [2] were 1.1 µM and 0.027 µM, respectively.

As to `CSCC[C@@H](N)C(=O)O` [D-Met], the Kd on MetQ [3] was found to be 110 ± 30 µM; on MetQ [4] it was 6.6 ± 0.6 µM. In addition, the values for the Ki on MetNI [5] and at MetNI [6] were 2400 ± 400 µM and 5400 ± 100 µM, respectively.

As to `CSCC[C@H](N)C(=O)O` [L-Met], the Kd at MetQ [3] was 300 ± 70 µM; on MetQ [4], 0.0066 ± 0.0006 µM. Further, the uptake rate result at MetNI-Q was “L-Met was imported into proteoliposomes”. Moreover, the Ki worked out at 3300 ± 300 µM on MetNI [5] and 120 ± 20 µM on MetNI [6].

B1: E. coli MetQ N229A, secreted (non-lipidated), C-terminal 6x-histidine tag (natural protein, UniProt P28635 23-271, looked up)
chain: T1 sequence (P28635 23-271 N229A)
modifications: fluorescein 5-maleimide on the single native cysteine at position 23 (anisotropy experiments)
notes: secreted non-lipidated form isolated from the periplasmic extract; The protein is unlabelled in the ATPase assays; also called N229A MetQ; native N229A; source: E. coli BL21 (DE3) Gold, periplasmic extract, purified (HisTrap, Superdex 200); not shown: His6, C-terminal, kept
Regarding B1, the Kd in [7] was 0.113 µM; in data set [9], 0.3 µM. The “kcat of MetQ-stimulated ATPase activity of detergent-solubilized N295A MetNI, 5 mM MgATP, native N229A MetQ 0-50 μM” value in data set [8] came to 4.45 s⁻¹.

B2: E. coli MetQ substrate-binding protein, wild type, secreted (non-lipidated), C-terminal 6x-histidine tag (natural protein, UniProt P28635 23-271, looked up)
chain: T1 sequence (P28635 23-271 N229A) with A207N
modifications: fluorescein 5-maleimide on the single native cysteine at position 23 (anisotropy experiments)
notes: secreted non-lipidated form isolated from the periplasmic extract; Cys23 is present; WT(apo), WT(LM) and WT(DM) are the same protein without methionine, with 100 uM L-Met or with 100 uM D-Met; native WT co-purifies with L-Met; The protein is unlabelled in the ATPase assays; also called WT MetQ; WT(apo); source: E. coli BL21 (DE3) Gold, periplasmic extract, purified (HisTrap, Superdex 200); not …
In the case of B2, the Kd was 8 ± 2 µM in data set [10], 5 µM in data set [11], 0.8 µM in data set [12] and 0.4 µM in data set [9]. The “kcat of MetQ-stimulated ATPase activity of detergent-solubilized N295A MetNI, 5 mM MgATP, WT(DM) MetQ 0-50 μM with 100 μM D-Met” value in data set [8] worked out at 1.83 s⁻¹. For the same molecule, the “kcat of MetQ-stimulated ATPase activity of detergent-solubilized N295A MetNI, 5 mM MgATP, WT(LM) MetQ 0-50 μM with 100 μM L-Met” value in data set [8] was found to be 1 s⁻¹. In data set [8], the “kcat of MetQ-stimulated ATPase activity of detergent-solubilized N295A MetNI, 5 mM MgATP, WT(apo) MetQ 0-50 μM” value is 4 s⁻¹.

B3: MetNI (Escherichia coli K-12) (protein)
chain: T5 sequence (P30750 1-343 partner)
For B3, in “purified protein”, the Km is given as 800 ± 100 µM and the kcat was 0.4 ± 0.067 s⁻¹.

B4: MetNI (Escherichia coli K-12; N295A) (protein)
chain: T5 sequence (P30750 1-343 partner) with N295A
As to B4, in “purified protein”, the Km is recorded as 812 ± 4 µM and the kcat turned out to be 0.4 ± 0.067 s⁻¹.
